Data on four molecules can be found in US10829545 (MIT, dated 2020).

Sequences and labels used below:
B1: mAb 8 (antibody, V domains shown)
VH: EVQLLESGGGLVQPGGSLRLSCAASGFSFSTYSMHWVRQAPGKGLEWVSAISGEGDSAYYADSVKGRFTISRDNSKNTLYLQMNKVRAEDTAVYYCVGGYSNFYYYYTMDAWGQGTMVTVSS
VL: DIVMTQSPASLSLSPGERATLSCRATQSISTFLAWYQQKPGQAPRLLIYDASTRASGIPARFSGSRSGTDFTLTITRLEPEDFAVYYCQQRYNWPPYSFGQGTKLEIK
notes: also called VH.1 / VL.2
B2: mAb 6 (antibody, V domains shown)
VH: EVQLVESGGGLVQPGGSLRLSCSASGFSFSTYSMHWVRQAPGKGLEYVSAITGEGDSAFYADSVKGRFTISRDNSKNTLYFEMNSLRPEDTAVYYCVGGYSNFYYYYTMDAWGQGTSVTVSS
VL: B1 VL with D1E, M4L, Q38H, I58V, T76S, R77S, L105V
notes: also called VH.3 / VL.1
B3: fusion loop targeting pan-flavivirus antibody (4G2) (antibody, V domains shown)
VH: EVQLQQSGPELVKPGTSVKISCKTSGYTFTEYTIHWVKQSHGKSLAWIGGIDPNSGGTNYSPNFKGKATLTVDKSSSTAYMDLRSLSSEDSAVYFCARIYHYDGYFDVWGAGTAVTVSS
VL: DIKMTQSPSSMYASLGERVTITCKASQDINSYLTWFQQKPGKSPKTLIYRANRLIDGVPSRFSGSGSGQDYSLTISSLDYEDMGIYYCLQYDEFPPTFGGGTKLEIKR
B4: mAb 7 (antibody, V domains shown)
VH: B1 VH with T69E
VL: B1 VL with S30V, R54N
notes: also called VH.2 / VL.4

Substitutions are numbered along the chain they refer to.

In the first test the target is T1, Zika virus envelope protein (EP), strain ILM (Brazil Paraiba 2015), on whole virus (Zika virus). Put plainly: cell-based or functional assay.
Take B1: the “PRNT50 (plaque reduction neutralization test on BHK-21 cells)” value stood at 5.12 µg/mL. On the same count and under the same terms, under B2 stands 0.0597 µg/mL.

The target of a further test is T1, Zika virus envelope protein (EP), ….
Assay: not given
The term Kd denotes a measure of binding affinity in units of concentration. High values mean lower affinity, low ones higher affinity. Turning to B3, the affinity, expressed as Kd, was 6.41 µg/mL.

In turn, B4 yielded a Kd of 5.21 µg/mL. On the same count and under the same terms, under B1 stands 19.3 µg/mL; under B2, 3.85 µg/mL.
